Results published in US20260166168A1 (MEDILINK THERAPEUTICS SUZHOU, published 2026).

T1: recombinant extracellular domain protein of human DLL3 (h.DLL3-ECD-His) (human, UniProt Q9NYJ7 27-492)
T1 construct: extracellular domain; Commercial protein; also called human DLL3 antigen; not shown: His tag
T1 sequence (looked up): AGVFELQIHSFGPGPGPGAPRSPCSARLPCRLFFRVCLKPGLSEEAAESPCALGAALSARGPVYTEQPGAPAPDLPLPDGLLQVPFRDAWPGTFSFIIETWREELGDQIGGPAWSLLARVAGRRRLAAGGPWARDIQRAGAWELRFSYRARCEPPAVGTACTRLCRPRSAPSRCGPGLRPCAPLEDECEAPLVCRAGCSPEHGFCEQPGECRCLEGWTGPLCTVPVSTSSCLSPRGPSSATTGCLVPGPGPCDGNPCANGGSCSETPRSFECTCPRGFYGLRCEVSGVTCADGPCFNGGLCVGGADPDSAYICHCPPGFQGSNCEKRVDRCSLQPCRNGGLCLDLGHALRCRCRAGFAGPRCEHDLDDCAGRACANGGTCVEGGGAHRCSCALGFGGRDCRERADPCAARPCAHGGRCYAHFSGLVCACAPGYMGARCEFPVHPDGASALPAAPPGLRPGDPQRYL

T2: recombinant extracellular domain protein of cynomolgus monkey DLL3 (cyno.DLL3-ECD-His) (cynomolgus monkey, UniProt A0A2K5WSR1 27-490)
T2 construct: extracellular domain; Commercial protein; not shown: His tag
T2 sequence: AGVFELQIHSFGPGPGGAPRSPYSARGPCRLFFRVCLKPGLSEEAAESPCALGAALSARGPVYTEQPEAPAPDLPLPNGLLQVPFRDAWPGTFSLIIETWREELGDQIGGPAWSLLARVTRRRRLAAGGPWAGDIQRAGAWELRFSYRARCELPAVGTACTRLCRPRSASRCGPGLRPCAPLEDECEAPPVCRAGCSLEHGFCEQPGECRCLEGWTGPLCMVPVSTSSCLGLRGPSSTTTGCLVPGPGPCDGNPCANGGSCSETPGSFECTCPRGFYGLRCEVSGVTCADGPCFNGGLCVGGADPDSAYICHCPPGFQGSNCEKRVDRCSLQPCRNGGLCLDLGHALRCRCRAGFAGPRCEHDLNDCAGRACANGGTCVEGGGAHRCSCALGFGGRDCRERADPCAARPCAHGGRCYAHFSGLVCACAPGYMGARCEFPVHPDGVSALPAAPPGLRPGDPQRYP

T3: recombinant extracellular domain protein of mouse DLL3 (Mouse DLL3-His) (mouse, UniProt O88516 33-490)
T3 construct: extracellular domain; Commercial protein; also called mDLL3; not shown: His tag
T3 sequence (looked up): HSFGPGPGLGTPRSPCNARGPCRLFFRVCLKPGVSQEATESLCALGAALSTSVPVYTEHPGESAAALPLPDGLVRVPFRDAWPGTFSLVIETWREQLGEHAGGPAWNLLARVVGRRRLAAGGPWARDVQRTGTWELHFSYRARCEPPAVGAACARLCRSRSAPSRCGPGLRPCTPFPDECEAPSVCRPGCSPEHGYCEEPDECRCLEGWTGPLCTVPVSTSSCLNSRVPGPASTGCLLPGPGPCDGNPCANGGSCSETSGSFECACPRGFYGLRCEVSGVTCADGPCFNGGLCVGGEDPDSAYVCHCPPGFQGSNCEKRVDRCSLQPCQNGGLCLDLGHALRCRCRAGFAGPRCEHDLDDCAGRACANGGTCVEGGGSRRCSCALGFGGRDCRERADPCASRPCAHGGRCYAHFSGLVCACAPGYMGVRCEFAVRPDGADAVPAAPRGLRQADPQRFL

T4: recombinant extracellular domain protein of rat DLL3 (Rat DLL3-His) (rat, UniProt O88671 33-494)
T4 construct: extracellular domain; Commercial protein; not shown: His tag
T4 sequence (looked up): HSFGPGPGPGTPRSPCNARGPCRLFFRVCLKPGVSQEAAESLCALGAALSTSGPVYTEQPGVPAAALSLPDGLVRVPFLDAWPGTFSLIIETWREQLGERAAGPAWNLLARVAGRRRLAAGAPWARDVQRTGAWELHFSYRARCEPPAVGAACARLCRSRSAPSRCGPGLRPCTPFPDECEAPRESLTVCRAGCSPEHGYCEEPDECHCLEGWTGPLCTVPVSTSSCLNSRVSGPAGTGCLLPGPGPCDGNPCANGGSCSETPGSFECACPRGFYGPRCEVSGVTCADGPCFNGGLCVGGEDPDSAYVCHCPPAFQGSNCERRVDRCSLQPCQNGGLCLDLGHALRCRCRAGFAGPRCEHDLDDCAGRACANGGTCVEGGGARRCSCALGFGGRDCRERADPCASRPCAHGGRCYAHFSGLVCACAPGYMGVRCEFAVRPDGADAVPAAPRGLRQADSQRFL

T5: human DLL1 on 293T-hDLL1 cells (human, UniProt O00548 18-723)
T5 construct: whole, on cells; also called 293T-DLL1; HEK293T-hDLL1
T5 sequence (looked up): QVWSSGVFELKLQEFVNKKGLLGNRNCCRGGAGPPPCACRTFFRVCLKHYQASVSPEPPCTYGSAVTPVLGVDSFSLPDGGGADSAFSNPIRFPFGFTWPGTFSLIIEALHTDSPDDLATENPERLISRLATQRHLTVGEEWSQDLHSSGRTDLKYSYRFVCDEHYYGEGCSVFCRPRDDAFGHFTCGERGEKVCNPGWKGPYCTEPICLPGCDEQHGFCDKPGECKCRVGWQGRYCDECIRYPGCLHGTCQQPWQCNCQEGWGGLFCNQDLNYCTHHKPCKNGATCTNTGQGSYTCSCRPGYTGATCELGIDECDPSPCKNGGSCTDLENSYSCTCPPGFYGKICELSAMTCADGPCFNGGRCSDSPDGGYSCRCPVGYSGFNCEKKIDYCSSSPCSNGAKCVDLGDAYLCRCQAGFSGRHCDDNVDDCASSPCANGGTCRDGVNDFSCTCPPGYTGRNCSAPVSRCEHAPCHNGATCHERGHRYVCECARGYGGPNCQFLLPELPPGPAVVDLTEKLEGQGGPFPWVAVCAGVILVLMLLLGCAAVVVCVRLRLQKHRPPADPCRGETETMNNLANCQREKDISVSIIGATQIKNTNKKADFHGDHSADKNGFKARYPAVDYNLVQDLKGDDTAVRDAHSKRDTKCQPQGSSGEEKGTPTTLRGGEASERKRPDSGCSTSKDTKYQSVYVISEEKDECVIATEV

B1: 6F11C10-Hz2 antibody (antibody, human IgG1, kappa, V domains shown)
VH: EVQLVQSGAEVKKPGASVKVSCKASGFTFTDYYMHWVRQAPGQSLEWMGLVYPYSGDISYAQKFQGRVTLTVDTSISTAYMELSRLRSDDTAVYYCARQGNYVNNAIDYWGQGTLVTVSS
VL: DIQMTQSPSSLSASVGDRVTITCKASQNVGNIIAWYQQKPGKSPKALIYLASYRYSGVPSRFSGSGSGTDFTLTISSLQPEDVATYFCQQYSDSPYTFGQGTKVEIKR
notes: Optimized humanized IgG1/kappa; also called 6FC11C0-Hz2; 6F11C10-Hz2-biotin
B2: murine antibody 59B10D3 (antibody, V domains shown)
VH: EVKLEESGGGLVQPGGSMKLSCAASGFTFSDAWMDWVRQSPEKGLEWIAEIRNKANNHATYYTESVKGRFTISRDDSKSSVYLQMISLRPEDTGIYYCTRNNYGSTWTYYAMDYWGQGTSVTVSS
VL: DIQMTQTSSSLSASLGDRVTINCRASQDISNYLNWYQQKPDGTVKLLIYYTSRLHSGVPSRFSGSGSGTDYSLTISNLEHEDIATYFCQQGYTLPLTFGAGTNLELK
notes: Murine antibody purified from hybridoma supernatant
B3: 55C11E4-Hz2 (antibody, human IgG1, kappa, V domains shown)
VH: EVQLVQSGAEVKKPGASVKVSCKASGYTFTDYYMNWVRQAPGQRLEWMGVINPYNGGTNYAQKFQGRVTLTVDKSASTAYMELSSLRSEDTAVYYCARDSNYVGLLDYWGQGTLVTVSS
VL: DIVLTQSPATLSLSPGERATLSCRASQSISNNLHWYQQKPGQAPRLLIKYASQSISGIPARFSGSGSGPDFTLTISSLEPEDFAVYFCQQSNSWPYTFGQGTKVEIKR
notes: Optimized humanized IgG1/kappa; also called 55C11E4-Hz2-biotin
B4: murine antibody 55C11E4 (antibody, V domains shown)
VH: EVQLQQSGPVLVKPGASVKMSCKASGYTFTDYYMNWVKQSHGKSLEWIGVINPYNGGTNYSQKFKGKATLTVDKSSSTAYMELNSLTSEDSAVYYCARDSNYVGLLDYWGQGTSVTVSS
VL: DIVLTQSPATLSVTPGDSVSLSCRASQSISNNLHWYQQKSHESPRLLIKYASQSISGIPSRFSGSGSGPDFTLSIDSVETEDFGVYFCQQSNSWPYTFGGGTKLEIK
notes: as for B2
B5: murine antibody 6F11C10 (antibody, V domains shown)
VH: EVHLQQSGPVLVKPGPSVKISCKASGFTFTDYYMHWVKQSHGKSLEWIGLVYPYNGDISYNQKFKGKATLTVDTSSSTAYMELNSLTSEDSAVYYCARQGNYVNNAIDYWGQGTSVTVSS
VL: DIVMTQSQKFMSTSVGDRVSISCKASQNVGNIIAWYQQKPGQSPKALIYLASYRYSGVPDRFTGSGSGTDFTLTINNVQSEDLAEYFCQQYSDSPYTFGSGTKLEI
notes: as for B2
B6: murine antibody 87F7F10 (antibody, V domains shown)
VH: DVQLQESGPGLVKPSQSLSLTCSVTGYSITSDFYWNWIRQFPGNKLEWMGYITYDGSTNYDPSLKNRISITRDTSKNQFFLKLNSVTAEDTATYYCVYGDFNRHAMDYWGQGTSVTVSS
VL: DIVMSQSPSSLAVSAGEKVTMSCRSSQSLFNSRTRKNYLAWYQQKPGQPPKVLIYWASTRESGVPDRFTGSGSGTDFTLTISSVQAEDLAVYYCEQSFYLFTFGTGTKLEI
notes: as for B2

Legend:
[1] = molecular target: T1, recombinant extracellular domain …; test: ELISA, coated h.DLL3-ECD-his 0.2 µg/mL, antibody titrated
[2] = molecular target: T2, recombinant extracellular domain …; test: ELISA, coated cyno.DLL3-ECD-his 0.2 µg/mL, antibody titrated
[3] = molecular target: T3, recombinant extracellular domain …; test: ELISA, coated Mouse DLL3-His 0.2 µg/mL, antibody titrated
[4] = molecular target: canine canis DLL3-ECD-his antigen protein (canine); test: ELISA, coated Canis DLL3-his 0.2 µg/mL, antibody titrated
[5] = molecular target: T4, recombinant extracellular domain …; test: ELISA, coated Rat DLL3-his 0.2 µg/mL, antibody titrated
[6] = molecular target: T1, recombinant extracellular domain …; test: ELISA, coated hDLL3-ECD-his, murine antibody titrated
[7] = molecular target: T6, human DLL4 on 293T-hDLL4 cells (human, UniProt Q9NR61 27-685); test: flow cytometry on 293T-hDLL4 cells, antibody 20 µg/mL
T6 construct: whole, on cells; also called 293T-DLL4; HEK293T-hDLL4

[8] = molecular target: T5, human DLL1 on 293T-hDLL1 cells; test: flow cytometry on 293T-hDLL1 cells, antibody 20 µg/mL
[9] = molecular target: T2, recombinant extracellular domain …; test: ELISA, coated cynoDLL3-ECD-his, murine antibody titrated

T6 sequence (Q9NR61 27-685): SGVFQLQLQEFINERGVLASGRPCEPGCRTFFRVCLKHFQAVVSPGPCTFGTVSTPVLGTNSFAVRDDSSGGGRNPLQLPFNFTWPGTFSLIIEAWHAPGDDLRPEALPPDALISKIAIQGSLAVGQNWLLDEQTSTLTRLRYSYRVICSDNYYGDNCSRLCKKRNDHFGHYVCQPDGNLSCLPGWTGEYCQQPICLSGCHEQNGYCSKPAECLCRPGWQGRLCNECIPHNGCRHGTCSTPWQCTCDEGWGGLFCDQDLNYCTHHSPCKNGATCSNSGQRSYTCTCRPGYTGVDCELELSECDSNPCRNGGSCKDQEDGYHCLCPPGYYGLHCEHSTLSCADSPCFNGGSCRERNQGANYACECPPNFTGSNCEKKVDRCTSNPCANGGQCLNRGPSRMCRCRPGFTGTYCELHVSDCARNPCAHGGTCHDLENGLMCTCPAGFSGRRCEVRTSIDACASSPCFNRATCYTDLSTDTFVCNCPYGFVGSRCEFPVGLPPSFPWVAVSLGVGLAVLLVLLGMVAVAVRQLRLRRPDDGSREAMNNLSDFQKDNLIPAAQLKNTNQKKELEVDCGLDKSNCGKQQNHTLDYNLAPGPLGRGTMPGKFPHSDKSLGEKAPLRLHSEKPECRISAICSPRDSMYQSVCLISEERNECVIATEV

EC50 [1] [ng/mL] | EC50 [2] [ng/mL] | EC50 [3] [µg/mL] | EC50 [4] [µg/mL] | EC50 [5] [ng/mL] | EC50 [6] [ng/mL] | positive rate [7] [%] | positive rate [8] [%] | EC50 [9] [µg/mL] | Binder
8.23 | 10.8 | 0.0301 | 0.0172 | 7.35 | – | – | – | – | B1
– | – | – | – | – | 1.3 | 0.67 | 6.3 | 0.00125 | B2
4.95 | 4.98 | 0.0213 | 0.0129 | 3.67 | – | – | – | – | B3
– | – | – | – | – | 56.7 | 0.1 | 0.92 | 0.0409 | B4
– | – | – | – | – | 7.59 | 0.76 | 0.64 | 0.0195 | B5
– | – | – | – | – | 1.68 | 0.42 | 1.84 | 0.00131 | B6
